The source of these data is paper doi:10.1101/847608 (bioRxiv, 2019).

The data set deals with the molecule itself. In words: turbidity.

For SGYDFEREGYS [SGYDFEREGYS peptide (wild type peptide, NP 287-297)], the binding result was “binds”.
